Values of other authors in PMC1448213.

Molecular target: high affinity NGF receptor (UniProt P35739)
Chain of UniProt P35739 (P35739 33-418): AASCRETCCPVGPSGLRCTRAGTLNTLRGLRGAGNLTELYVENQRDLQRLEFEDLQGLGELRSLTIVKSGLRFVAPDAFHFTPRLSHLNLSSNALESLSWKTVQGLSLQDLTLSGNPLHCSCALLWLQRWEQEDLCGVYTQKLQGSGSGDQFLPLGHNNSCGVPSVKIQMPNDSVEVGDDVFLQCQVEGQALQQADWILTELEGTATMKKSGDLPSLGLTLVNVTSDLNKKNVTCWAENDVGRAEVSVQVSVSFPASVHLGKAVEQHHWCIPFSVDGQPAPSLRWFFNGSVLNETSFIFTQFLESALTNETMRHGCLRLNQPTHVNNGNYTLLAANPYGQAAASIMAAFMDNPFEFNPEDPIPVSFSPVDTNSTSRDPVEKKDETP

Chain of NGF (P01139 122-241): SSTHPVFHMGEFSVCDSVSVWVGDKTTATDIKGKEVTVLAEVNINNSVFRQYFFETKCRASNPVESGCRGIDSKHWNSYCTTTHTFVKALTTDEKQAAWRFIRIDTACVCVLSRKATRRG

NGF (from UniProt P01139)
Kd: 600 pM
